Data from patent US20150111246A1, “SITE-SPECIFIC ENZYMATIC MODIFICATION OF EXENDINS AND ANALOGS THEREOF” (priority 2012, published 2015).
Bridge positions count the residues as written; N and C are the ends. Peptide text beside a SMILES is read from it. * marks the point of attachment. NH(mPEG24) = COCCOCCOCCOCCOCCOCCOCCOCCOCCOCCOCCOCCOCCOCCOCCOCCOCCOCCOCCOCCOCCOCCOCCOCCN*

How the values were obtained:
[1] = target: T1, GLP-1 receptor (Rattus norvegicus, UniProt P32301); experiment: GLP-1 receptor binding displacement assay; conditions: text of Examples 6, 7, 12
T1 construct: endogenous in cells; host or cells: RINm5F cell membranes
T1 sequence (P32301 22-463): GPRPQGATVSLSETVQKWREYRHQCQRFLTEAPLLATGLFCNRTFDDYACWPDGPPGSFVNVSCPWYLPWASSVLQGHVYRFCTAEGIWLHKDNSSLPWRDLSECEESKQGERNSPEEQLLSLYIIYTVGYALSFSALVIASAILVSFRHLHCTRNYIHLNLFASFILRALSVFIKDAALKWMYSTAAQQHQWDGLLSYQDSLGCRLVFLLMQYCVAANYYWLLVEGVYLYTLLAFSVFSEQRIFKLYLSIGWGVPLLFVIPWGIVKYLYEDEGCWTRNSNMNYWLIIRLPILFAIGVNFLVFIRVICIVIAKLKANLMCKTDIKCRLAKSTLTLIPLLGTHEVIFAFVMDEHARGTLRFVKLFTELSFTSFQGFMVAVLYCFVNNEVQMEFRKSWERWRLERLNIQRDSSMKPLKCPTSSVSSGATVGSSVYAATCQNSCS
Protocol: GLP-1 receptor binding and functional assays: GLP-1 receptor binding activity and affinity may be measured in any number of known methods. […] Reaction mixtures are filtered through glass filter pads presoaked with 0.3% PEI solution and rinsed with ice-cold phosphate buffered saline. Bound counts are determined using a scintillation counter. Binding affinities can be calculated using GraphPad Prism® software (GraphPad Software, Inc., San Diego, Calif.).

[2] = target: GLP-1 receptor (UniProt P32301); experiment: radioligand displacement, RINm5F cell membranes, [125I]GLP-1 (or exendin) tracer
[3] = target: GLP-1 receptor (UniProt P32301); experiment: cell-based or functional assay
[4] = target: T2, GLP-1 receptor, P32301; experiment: GLP-1 binding assay (radioligand displacement), as the filing names it
T2 chain: T1 sequence (P32301 22-463)

[5] = target: T3, GLP-1 receptor (UniProt P32301 22-463, limits assumed); experiment: cell-based or functional assay
T3 sequence (looked up): T1 sequence (P32301 22-463)

Molecule: CC[C@H](C)[C@H](NC(=O)[C@@H]1CCCN1C(=O)CNC(=O)[C@H](Cc1ccccc1)NC(=O)[C@H](CC(N)=O)NC(=O)[C@H](CC(N)=O)NC(=O)[C@H](CO)NC(=O)[C@H](CO)NC(=O)[C@H](Cc1c[nH]cn1)NC(=O)[C@@H](NC(=O)[C@H](CC(C)C)NC(=O)[C@H](Cc1ccccc1)NC(=O)[C@H](CC(N)=O)NC(=O)[C@H](C)NC(=O)[C@H](CC(C)C)NC(=O)[C@H](CCCNC(=N)N)NC(=O)[C@H](CCC(=O)NCCOCCOCCOCCOCCOCCOCCOCCOCCOCCOCCOCCOCCOCCOCCOCCOCCOCCOCCOCCOCCOCCOCCOCCOC)NC(=O)[C@@H](NC(=O)[C@H](C)NC(=O)[C@@H]1CSSC[C@H](NC(=O)[C@@H](N)CCCCN)C(=O)N[C@@H](CC(N)=O)C(=O)N[C@@H]([C@@H](C)O)C(=O)N[C@@H](C)C(=O)N[C@@H]([C@@H](C)O)C(=O)N1)[C@@H](C)O)C(C)C)C(=O)N[C@@H](CC(C)C)C(=O)N1CCC[C@H]1C(=O)N1CCC[C@H]1C(=O)N[C@H](C(=O)N[C@@H](CC(N)=O)C(=O)N[C@H](C(=O)NCC(=O)N[C@@H](CO)C(=O)N[C@@H](CC(N)=O)C(=O)N[C@H](C(=O)N[C@@H](Cc1ccc(O)cc1)C(N)=O)[C@@H](C)O)C(C)C)[C@@H](C)O [Example 12] (H-KCNTATCATE(NH(mPEG24))RLANFLVHSSNNFGPILPPTNVGSNTY-NH2; disulfide 2-7; N-terminus and C-terminus assumed)
- IC50 [1]: 80 nM

Molecule: Exendin-4 (peptide)
- IC50 [2]: 0.333 nM
- GLP-1 Function ED50 [3]: 0.003 nM

Molecule: KCNTATCATQRLANFLVHSSNNFGPILPPTNVGSNTY (modifications not checked) [Pramlintide pegylated with m-dPEG24 amine at the glutamine at position 10]
- IC50 [4]: 80 nM

B1: [des-^1H, ^2G(imidazoacetyl), ^13N, ^14L]-Exendin-4-^40Q biotin cadaverine amide adduct attached at ^40Q (MW 4564.46) (peptide)
peptide: GEGTFTSDLSKNLEEEAVRLFIEWLKNGGPSSGAPPPSQ
modifications: imidazoacetyl on Gly 2 in place of His 1; biotin cadaverine amide on the side chain of Gln 40
- EC50 in the GLP-1 functional assay [5]: 0.004 nM
